The experiment concerns the target T1, D614G S2P probe (SARS-CoV-2, WA-1 with D614G, UniProt A0A6H1PJZ3, D614G | K986P | V987P, biotin on the AVI tag (…)).
T1 construct: also called single mutated D614G S2P
The experiment can be described thus: BLI. To be noted: both partners purified.

B1: A19-46.1 (antibody, V domains shown)
VH: QVQLVESGGGVVQPGRSLRLSCAASGFTLSSYGMHWVRQAPGKGLEWVAVISYDGSNKYYVDSVKGRFTISRDNSKNTLYLQMNSLRAEDTAVYYCARGWAYWELLPDYYYGMDVWGQGTTVTVSS
VL: QTVVTQEPSFSVSPGGTVTLTCGLSSGSVSTAYFPSWYQQTPGQAPRTLIYGTNTRSSGVPDRFSGSILGNKAALTITGAQADDESDYYCVLYMGRGIVVFGGGTKLTVL
As for B1, the binding result was “binds”.
